Values of other authors in patent US20240269237A1, “PHARMACEUTICAL COMPOSITION AND KIT COMPRISING AN IMMUNOMODULATORY SUBSTANCE FOR TREATING DISEASES” (ellennbe GmbH, priority 2021, published 2024).

System: ankylosing spondylitis (Bechterew's disease)
Settings: Patient 11, history; within half a year the biologics lost their effect

B1: certolizumab pegol (antibody, chains of the INN, looked up, V domains shown)
VH: EVQLVESGGGLVQPGGSLRLSCAASGYVFTDYGMNWVRQAPGKGLEWMGWINTYIGEPIYADSVKGRFTFSLDTSKSTAYLQMNSLRAEDTAVYYCARGYRSYAMDYWGQGTLVTVSS
VL: DIQMTQSPSSLSASVGDRVTITCKASQNVGTNVAWYQQKPGKAPKALIYSASFLYSGVPYRFSGSGSGTDFTLTISSLQPEDFATYYCQQYNIYPLTFGQGTKVEIK
- effect of earlier treatment with biologics: little effect from the outset
